B2: 6FW-EmrE^W63 (EmrE W31F/W45F/W76F labeled with 6-fluoro-tryptophan at Trp63) (natural protein, E. coli)
chain: MNPYIYLGGAILAEVIGTTLMKFSEGFTRLFPSVGTIICYCASFFLLAQTLAYIPTGIAYAIWSGVGIVLISLLSFGFFGQRLDLPAIIGMMLICAGVLIINLLSRSTPH
modifications: 6-fluoro-tryptophan at Trp63
notes: EmrE, small multidrug resistance (SMR) transporter of E. coli; only Trp63 kept of the four tryptophans; also called 6FW-labeled EmrE^W63; source: E. coli BL21(DE3), M9 medium with glyphosate and fluoro-indole, purified (amylose column, TEV cleavage, SEC in DDM)

Experiments:
Assay in all cases: 19F NMR spectroscopy (one-dimensional spectra and 19F/19F ZZ-exchange/NOESY); proteins alone or mixed in DDM (1 h, 37 °C, 10 mM DTT) at stated molar ratios, reconstituted in 14:0-PC/6:0-PC isotropic bicelles (q = 0.33); pH 5.6; 37 °C; 1-2 mM protein; 150 mM Na2HPO4, 20 mM NaCl
[1] = target: T1, EmrE^(W63, E14Q), natural abundance (E. coli, UniProt P23895 1-110, W31F | W45F | W76F | E14Q); details: both partners purified
T1 construct: EmrE, small multidrug resistance (SMR) transporter of E. coli; EmrE^W63 background with E14Q; also called natural abundance EmrE^(W63, E14Q); source: E. coli BL21(DE3), purified (amylose column, TEV cleavage, SEC in DDM)
T1 sequence: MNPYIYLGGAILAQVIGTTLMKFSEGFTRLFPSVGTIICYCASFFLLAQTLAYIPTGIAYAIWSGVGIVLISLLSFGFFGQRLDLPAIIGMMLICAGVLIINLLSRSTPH

[2] = target: T2, EmrE^W63 (EmrE W31F/W45F/W76F), natural abundance (E. coli, UniProt P23895 1-110, W31F | W45F | W76F); details: both partners purified
T2 construct: EmrE, small multidrug resistance (SMR) transporter of E. coli; only Trp63 kept of the four tryptophans; NMR-silent partner in the mixed (heterodimer) samples; reconstituted in 14:0-PC/6:0-PC bicelles; also called unlabeled EmrE^W63; natural abundance EmrE^W63; source: E. coli BL21(DE3), LB medium, purified (amylose column, TEV cleavage, SEC in DDM)
T2 sequence: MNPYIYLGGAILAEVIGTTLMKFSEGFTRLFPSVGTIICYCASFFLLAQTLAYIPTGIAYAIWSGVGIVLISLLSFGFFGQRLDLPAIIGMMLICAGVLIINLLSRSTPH

[3] = target: T3, EmrE^(W63, L51I), natural abundance (E. coli, UniProt P23895 1-110, W31F | W45F | W76F | L51I); details: both partners purified
T3 construct: EmrE, small multidrug resistance (SMR) transporter of E. coli; EmrE^W63 background with L51I; also called natural abundance EmrE^(W63, L51I); source: E. coli BL21(DE3), purified (amylose column, TEV cleavage, SEC in DDM)
T3 sequence: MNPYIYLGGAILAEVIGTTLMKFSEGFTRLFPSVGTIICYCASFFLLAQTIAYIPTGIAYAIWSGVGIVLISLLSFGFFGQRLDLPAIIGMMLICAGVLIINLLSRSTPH

[4] = target: the molecule itself
[5] = target: B2; details: both partners purified

B1: 5FW-EmrE^W63 (EmrE W31F/W45F/W76F labeled with 5-fluoro-tryptophan at Trp63) (natural protein, E. coli)
chain: MNPYIYLGGAILAEVIGTTLMKFSEGFTRLFPSVGTIICYCASFFLLAQTLAYIPTGIAYAIWSGVGIVLISLLSFGFFGQRLDLPAIIGMMLICAGVLIINLLSRSTPH
modifications: 5-fluoro-tryptophan at Trp63
notes: EmrE, small multidrug resistance (SMR) transporter of E. coli; only Trp63 kept of the four tryptophans; also called 5FW-labeled EmrE^W63; source: E. coli BL21(DE3), M9 medium with glyphosate and fluoro-indole, purified (amylose column, TEV cleavage, SEC in DDM)
- binding result [1]: binds
- binding result [2]: binds
- binding result [3]: binds
- binding result [4]: binds

Binder: B2
- binding result [2]: binds
- binding result [4]: binds

B3: 5FW-EmrE^(W63, E14Q) (natural protein, E. coli)
chain: MNPYIYLGGAILAQVIGTTLMKFSEGFTRLFPSVGTIICYCASFFLLAQTLAYIPTGIAYAIWSGVGIVLISLLSFGFFGQRLDLPAIIGMMLICAGVLIINLLSRSTPH
modifications: 5-fluoro-tryptophan at Trp63
notes: EmrE, small multidrug resistance (SMR) transporter of E. coli; EmrE^W63 background with E14Q; also called Gln14 mutant monomer; source: E. coli BL21(DE3), M9 medium with glyphosate and fluoro-indole, purified (amylose column, TEV cleavage, SEC in DDM)
- binding result [2]: binds
- binding result [4]: binds

B4: 5FW-EmrE^(W63, L51I) (natural protein, E. coli)
chain: MNPYIYLGGAILAEVIGTTLMKFSEGFTRLFPSVGTIICYCASFFLLAQTIAYIPTGIAYAIWSGVGIVLISLLSFGFFGQRLDLPAIIGMMLICAGVLIINLLSRSTPH
modifications: 5-fluoro-tryptophan at Trp63
notes: EmrE, small multidrug resistance (SMR) transporter of E. coli; EmrE^W63 background with L51I; source: E. coli BL21(DE3), M9 medium with glyphosate and fluoro-indole, purified (amylose column, TEV cleavage, SEC in DDM)
- binding result [5]: binds
- binding result [2]: binds
- binding result [4]: binds
